Values of other authors in paper PMC5408752.

Assays:
[1] = biological target: NisA precursor (Lactococcus lactis) (UniProt P13068); experiment: isothermal titration calorimetry
[2] = biological target: NisA leader leader (Lactococcus lactis) (UniProt P13068); experiment: isothermal titration calorimetry
[3] = biological target: nisin (Lactococcus lactis) (UniProt P13068); experiment: NMR titration

Substance	Kd [1] [µM]	Kd [2] [µM]	Kd [3] [µM]
NisC (from UniProt Q03202)	2	3.8	
NisI CTD (from UniProt P42708)			22
